This is an account of results in PMC4845099.

The data set concerns Cc1cc(=O)oc2cc(NC(=O)CNC(=O)CNC(=O)[C@H](CCCNC(=N)N)NC(=O)[C@H](CC(C)C)NC(=O)[C@H](CCCNC(=N)N)NC(=O)OCc3ccccc3)ccc12. The data set is described as follows: purified protein, by the assay type. The following applies: pH 7.5.

Take MERS-PLpro (Betacoronavirus England 1): the Km stood at 142 µM and the kcat/Km is 18000 M⁻¹ s⁻¹.

One may read the Km as the concentration of substrate that gives half-maximal velocity. Usually kcat/Km stands for the turnover number divided by the Michaelis constant.
